Data from patent US20230140976A1 (OREGON HEALTH AND SCIENCE UNIVERSITY, published 2023).

T1: human dystroglycan (DG) heterodimer of α-DG and β-DG (human, UniProt Q14118 30-653; Q14118 654-895, variable O- and N-glycosylation of α-DG (sites listed in paragraph 55))
T1 construct: In the immunoprecipitations it came from lysates of surface-biotinylated cells; also called DAG1; Dystrophin-Associated Glycoprotein 1
T1 sequence 1: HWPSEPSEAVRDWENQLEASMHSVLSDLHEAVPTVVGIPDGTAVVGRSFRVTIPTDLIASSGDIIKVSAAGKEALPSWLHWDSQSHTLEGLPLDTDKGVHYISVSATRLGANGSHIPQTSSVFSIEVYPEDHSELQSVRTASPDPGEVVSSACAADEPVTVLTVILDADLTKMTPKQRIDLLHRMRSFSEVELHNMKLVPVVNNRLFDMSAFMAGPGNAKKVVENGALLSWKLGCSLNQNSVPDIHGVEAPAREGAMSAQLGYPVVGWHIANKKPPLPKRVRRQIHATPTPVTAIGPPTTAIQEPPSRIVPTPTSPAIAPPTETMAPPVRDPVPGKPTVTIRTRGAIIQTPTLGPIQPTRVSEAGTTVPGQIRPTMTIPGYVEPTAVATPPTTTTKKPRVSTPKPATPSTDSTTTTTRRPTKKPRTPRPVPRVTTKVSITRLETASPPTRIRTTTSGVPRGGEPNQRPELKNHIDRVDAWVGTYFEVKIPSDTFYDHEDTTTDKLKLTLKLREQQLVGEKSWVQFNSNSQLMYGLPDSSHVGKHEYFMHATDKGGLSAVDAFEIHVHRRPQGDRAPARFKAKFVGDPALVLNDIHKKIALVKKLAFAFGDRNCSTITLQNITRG
T1 sequence 2: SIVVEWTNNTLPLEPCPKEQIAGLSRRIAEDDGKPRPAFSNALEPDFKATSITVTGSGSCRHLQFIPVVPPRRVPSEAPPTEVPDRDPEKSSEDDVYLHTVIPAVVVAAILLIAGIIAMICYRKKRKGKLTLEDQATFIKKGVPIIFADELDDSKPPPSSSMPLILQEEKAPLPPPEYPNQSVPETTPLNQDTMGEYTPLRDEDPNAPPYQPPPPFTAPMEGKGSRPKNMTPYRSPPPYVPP

T2: dog dystroglycan (DG) (MDCK cells) (dog, UniProt Q9TSZ6 28-892)
T2 construct: whole, on cells; also called dog DG
T2 sequence (looked up): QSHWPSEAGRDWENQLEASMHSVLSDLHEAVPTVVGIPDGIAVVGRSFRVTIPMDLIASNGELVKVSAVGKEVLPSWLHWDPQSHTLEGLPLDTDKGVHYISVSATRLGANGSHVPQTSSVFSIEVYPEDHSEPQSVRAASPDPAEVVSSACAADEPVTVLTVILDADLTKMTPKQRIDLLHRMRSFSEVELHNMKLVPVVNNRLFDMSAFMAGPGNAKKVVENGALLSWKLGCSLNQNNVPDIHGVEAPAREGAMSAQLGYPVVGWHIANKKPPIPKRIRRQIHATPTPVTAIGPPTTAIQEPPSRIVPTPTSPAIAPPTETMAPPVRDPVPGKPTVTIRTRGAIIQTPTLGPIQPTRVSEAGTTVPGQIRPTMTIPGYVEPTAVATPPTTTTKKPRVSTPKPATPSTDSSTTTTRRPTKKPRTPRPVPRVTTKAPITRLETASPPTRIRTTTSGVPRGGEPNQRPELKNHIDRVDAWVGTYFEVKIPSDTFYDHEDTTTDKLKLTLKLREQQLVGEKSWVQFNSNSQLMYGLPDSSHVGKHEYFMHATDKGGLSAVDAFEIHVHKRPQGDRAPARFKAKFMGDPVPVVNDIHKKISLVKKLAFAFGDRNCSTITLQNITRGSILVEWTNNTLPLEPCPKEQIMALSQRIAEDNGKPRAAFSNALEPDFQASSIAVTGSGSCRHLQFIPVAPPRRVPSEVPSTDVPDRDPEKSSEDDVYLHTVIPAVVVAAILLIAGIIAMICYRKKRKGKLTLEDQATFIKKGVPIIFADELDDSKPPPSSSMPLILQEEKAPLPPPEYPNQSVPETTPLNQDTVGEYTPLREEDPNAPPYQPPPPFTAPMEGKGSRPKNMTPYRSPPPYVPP


Key:
[1] = molecular target: T1, human dystroglycan (DG) heterodimer of …; experiment: live-cell immunofluorescence on co-cultured MEpG cells with and without human DG (FIG. 3)
Protocol: Example 2. Screening for antibodies of interest by live cell binding and internalization. Antibody activity was measured as binding to the surface of living cells expressing the human DG protein (“positive” cells) but not to negative controls (cells derived from an engineered conditional DG knockout mouse lacking human DG expression). The positive population was the same cell line used for immunization, MEpG cells expressing the human DG protein. The negative population was the murine MEpG line expressing green fluorescent protein (GFP) and not the human DG protein, created as previously described in Oppizzi et al., Traffic, 9(12): 2063-2072, 2008. The positive and negative populations were co-cultured in wells of Ibidi 96-well micro-plates (Ibidi, catalog #89626) and distinguishable by GFP expression. Hybridoma supernatants to be tested were diluted 1:1 with plain DMEM:F12 cell culture medium (Gibco) and added to cell-containing wells of the 96-well Ibidi plates. Each well was incubated for 60 minutes at 37° C. with the hybridoma supernatants to be tested, washed with DMEM:F12 medium, and incubated 30 minutes at 37° C. with an anti-mouse secondary antibody conjugated to the Alexa-568 fluorescent dye (Jackson Immunochemicals) diluted 1:1000 in DMEM:F12 medium. […]

[2] = molecular target: T2, dog dystroglycan (DG) (MDCK cells); experiment: not described; MDCK cells
[3] = molecular target: T1, human dystroglycan (DG) heterodimer of …; experiment: live-cell immunofluorescence on UMUC3, UMUC5, UMUC9 and UMUC10

Row | Binder | binding result [1] | binding result [2] | binding result [3]
1 | monoclonal antibody from hybridoma DG1A11 (ATCC Patent Deposit No. PTA-126595) (antibody, V domains shown, Mouse monoclonal antibody (Balb/c hybridoma); Tested as hybridoma supernatant or purified antibody; also called Antibody A; lane A) VH: DVQLQESGPGLVKPSQSLSLTCTVTDYAITSDYAWNWIRQFPGNKLEWMGYISYSGSTSYSSSLKSRISITRDTSKNQFFLQLNSVTPEDTATYYCARAAPFTTLTDFFDYWGQGTTLTVSS VL: DIVMTQSHKFMSTSVGDRVTITCKASQDVTTAVAWYQQKPGQSPKLLIYWASSRHTGVPDRFTGSGSGTDYTLTISSVQAEDLALYYCQQHYSTPYTFGGGTKLEIKR | binds | no binding | 
2 | monoclonal antibody from hybridoma DG4H4 (ATCC Patent Deposit No. PTA-126594) (antibody, V domains shown, Mouse monoclonal antibody (Balb/c hybridoma); also called lane F) VH: QVTLKESGPGILKPSQTLSLTCSFSGFSLSTSGMGVGWIRQPSGKGLEWLAHIWWDDDKYYNPSLKSQLTISKDTSRNQVFLKITSVDTADTATYYCARRAYYYGSSYPMDYWGQGTSVTVSS VL: DIVLTQSPTSLAVSLGQRATFSCKASQSVDYDGDSYMNWYQQKPGQPPKLLIYAASNLDSGIPARFSGSGSGTDFTLNIHPVEEEDAATYYCQQSNEDPLTFGAGTKLELKR |  | no binding | binds
